Our source for the TDCC Average EC50 [M], OVCAR8 cells, human T cells values is patent US20200289646A1.

Positions count from the first letter of the chain named.

B1: MSLN targeting trispecific protein 7F1 (protein, part only; not given: Albumin and CD3 binders, linkers, part only)
chain, part: QVQLVESGGGLVQAGGSLRLSCAASAIGSINSMSWYRQAPGKQREPVAVITDRGSTSYADSVKGRFTISRDNAKNTVYLQMNSLKPEDTAIYTCHVIADWRGYWGQGTQVTVSSHHHHHH
B2: MSLN targeting trispecific protein 2D1 (protein, part only; not given: Albumin and CD3 binders, linkers, part only)
chain, part: B1 chain, part with A26T, I27T, G28S, P40Q
B3: MSLN targeting trispecific protein 2F4 (protein, part only; not given: Albumin and CD3 binders, linkers, part only)
chain, part: B1 chain, part with A23T, A24T, A26T, I27T, G28F, K42N, D52N, S55T, K74R, N82D
B4: MSLN targeting trispecific protein 11F3 (protein, part only; not given: Albumin and CD3 binders, linkers, part only)
chain, part: QVQLVESGGGLVQAGGSLRLSCVASGRTSTIDTMYWHRQAPGNERELVAYVTSRGTSNVADSVKGRFTISRDNAKNTAYLQMNSLKPEDTAVYYCSVRTTSYPVDFWGQGTQVTVSSHHHHHH
B5: MSLN targeting trispecific protein 3B4 (protein, part only; not given: Albumin and CD3 binders, linkers, part only)
chain, part: QVQLVESGGGLVQAGGSLRLSCVASGSTSNINNMRWYRQAPGKERELVAVITRGGYAIYLDAVKGRFTISRDNANNAIYLEMNSLKPEDTAVYVCNADRVEGTSGGPQLRDYFGQGTQVTVSSHHHHHH
B6: MSLN targeting trispecific protein 2A2 (protein, part only; not given: Albumin and CD3 binders, linkers, part only)
chain, part: QVQLVESGGGLVQAGGSLTLSCAASGSTFSIRAMRWYRQAPGTERDLVAVIYGSSTYYADAVKGRFTISRDNAKNTLYLQMNNLKPEDTAVYYCNADTIGTARDYWGQGTQVTVSSHHHHHH
B7: MSLN targeting trispecific protein 5F2 (protein, part only; not given: Albumin and CD3 binders, linkers, part only)
chain, part: B6 chain, part with T19R, S30R, A33V, Y52S, A61S, T98D, I99S, T101I
B8: MSLN targeting trispecific protein 5D4 (protein, part only; not given: Albumin and CD3 binders, linkers, part only)
chain, part: QVQLVESGGGLVQAGGSLRLSCVASGRTDRITTMGWYRQAPGKQRELVATISNRGTSNYANSVKGRFTISRDNAKNTVYLQMNSLKPEDTAVYYCNARKWGRNYWGQGTQVTVSSHHHHHH
B9: MSLN targeting trispecific protein 9H2 (protein, part only; not given: Albumin and CD3 binders, linkers, part only)
chain, part: QVQLVESGGGLVQAGGSLRLSCAASGSTSSINTMYWYRQAPGKERELVAFISSGGSTNVRDSVKGRFSVSRDSAKNIVYLQMNSLTPEDTAVYYCNTYIPLRGTLHDYWGQGTQVTVSSHHHHHH
B10: MSLN targeting trispecific protein 10B3 (protein, part only; not given: Albumin and CD3 binders, linkers, part only)
chain, part: B9 chain, part with T86K, L101Y, R102G, Y108F
B11: MSLN targeting trispecific protein 5C2 (protein, part only; not given: Albumin and CD3 binders, linkers, part only)
chain, part: B9 chain, part with Y37F, K43E, F50T, S52N, S53R, S84R, T86K, L101Y, R102G, Y108F
B12: MSLN targeting trispecific protein 3G1 (protein, part only; not given: Albumin and CD3 binders, linkers, part only)
chain, part: QVRLVESGGGLVQAGESLRLSCAASGRPFSINTMGWYRQAPGKQRELVASISSSGDFTYTDSVKGRFTISRDNAKNTVYLQMNSLKPEDTAVYYCNARRTYLPRRFGSWGQGTQVTVSSHHHHHH
B13: MSLN targeting trispecific protein 9B1 (protein, part only; not given: Albumin and CD3 binders, linkers, part only)
chain, part: QVQLVESGGGLVQPGGSLRLSCAASGRTFSVRGMAWYRQAGNNRALVATMNPDGFPNYADAVKGRFTISWDIAENTVYLQMNSLNSEDTTVYYCNSGPYWGQGTQVTVSSHHHHHH
B14: MSLN targeting trispecific protein 3F2 (protein, part only; not given: Albumin and CD3 binders, linkers, part only)
chain, part: QVQIVESGGGLVQAGGSLRLSCVASGLTYSIVAVGWYRQAPGKEREMVADISPVGNTNYADSVKGRFTISKENAKNTVYLQMNSLKPEDTAVYYCHIVRGWLDERPGPGPIVYWGQGTQVTVSSHHHHHH
B15: MSLN targeting trispecific protein 6F3 (protein, part only; not given: Albumin and CD3 binders, linkers, part only)
chain, part: QVQPVESGGGLVQPGGSLRLSCVVSGSDFTEDAMAWYRQASGKERESVAFVSKDGKRILYLDSVRGRFTISRDIYKKTVYLQMDNLKPEDTGVYYCNSAPGAARNVWGQGTQVTVSSHHHHHH
B16: MSLN targeting trispecific protein 2A1 (protein, part only; not given: Albumin and CD3 binders, linkers, part only)
chain, part: B15 chain, part with Y75D, V106Y
B17: MSLN targeting trispecific protein 12C2 (protein, part only; not given: Albumin and CD3 binders, linkers, part only)
chain, part: QVQLVESGGGLVQTGGSLRLSCAASGLTFGVYGMEWFRQAPGKQREWVASHTSTGYVYYRDSVKGRFTISRDNAKSTVYLQMNSLKPEDTAIYYCKANRGSYEYWGQGTQVTVSSHHHHHH
B18: MSLN targeting trispecific protein 5D2 (protein, part only; not given: Albumin and CD3 binders, linkers, part only)
chain, part: QVQLGESGGGLVQAGGSLRLSCAASGSIFSPNAMIWHRQAPGKQREPVASINSSGSTNYGDSVKGRFTVSRDIVKNTMYLQMNSLKPEDTAVYYCSYSDFRRGTQYWGQGTQVTVSSHHHHHH
B19: MSLN targeting trispecific protein 2C2 (protein, part only; not given: Albumin and CD3 binders, linkers, part only)
chain, part: QVQLVESGGGLVQAGESRRLSCAVSGDTSKFKAVGWYRQAPGAQRELLAWINNSGVGNTAESVKGRFTISRDNAKNTVYLQMNRLTPEDTDVYYCRFYRRFGINKNYWGQGTQVTVSSHHHHHH
B20: MSLN targeting trispecific protein 5G2 (protein, part only; not given: Albumin and CD3 binders, linkers, part only)
chain, part: QVQLVESGGGLVQAGGSLRLSCAASGSTFGNKPMGWYRQAPGKQRELVAVISSDGGSTRYAALVKGRFTISRDNAKNTVYLQMESLVAEDTAVYYCNALRTYYLNDPVVFSWGQGTQVTVSSHHHHHH
B21: MSLN targeting trispecific protein 7H2 (protein, part only; not given: Albumin and CD3 binders, linkers, part only)
chain, part: QVQLVESGGGLVQAGGSLRLSCAFSGTTYTFDLMSWYRQAPGKQRTVVASISSDGRTSYADSVRGRFTISGENGKNTVYLQMNSLKLEDTAVYYCLGQRSGVRAFWGQGTQVTVSSHHHHHH
B22: MSLN targeting trispecific protein 4A2 (protein, part only; not given: Albumin and CD3 binders, linkers, part only)
chain, part: QVQLVESGGGLVQAGGSLRLSCAASGSTFGINAMGWYRQAPGKQRELVAVISRGGSTNYADSVKGRFTISRDNAENTVSLQMNTLKPEDTAVYFCNARTYTRHDYWGQGTQVTVSSHHHHHH
B23: MSLN targeting trispecific protein 5H1 (protein, part only; not given: Albumin and CD3 binders, linkers, part only)
chain, part: QVQLVESGGGLVQPGGSLRLSCAASGGDWSANFMYWYRQAPGKQRELVARISGRGVVDYVESVKGRFTISRDNAKNTVYLQMNSLKPEDTAVYYCAVASYWGQGTQVTVSSHHHHHH
B24: MSLN targeting trispecific protein 6H2 (protein, part only; not given: Albumin and CD3 binders, linkers, part only)
chain, part: QVQLVESGGGLVQAGGSLRLSCAASGRTLSRYAMGWFRQAPGKERQFVAAISRSGGTTRYSDSVKGRFTISRDNAANTFYLQMNNLRPDDTAVYYCNVRRRGWGRTLEYWGQGTQVTVSSHHHHHH
B25: MSLN targeting trispecific protein 7C4 (protein, part only; not given: Albumin and CD3 binders, linkers, part only)
chain, part: QVQLVESGGGLVPSGGSLRLSCAASGATSAITNLGWYRRAPGQVREMVARISVREDKEDYEDSVKGRFTISRDNTQNLVYLQMNNLQPHDTAIYYCGAQRWGRGPGTTWGQGTQVTVSSHHHHHH
B26: MSLN targeting trispecific protein 2A4 (protein, part only; not given: Albumin and CD3 binders, linkers, part only)
chain, part: QVQLVESGGGLVQARGSLRLSCTASGRTIGINDMAWYRQAPGNQRELVATITKGGTTDYADSVDGRFTISRDNAKNTVYLQMNSLKPEDTAVYYCNTKRREWAKDFEYWGQGTQVTVSSHHHHHH
B27: MSLN targeting trispecific protein 9F3 (protein, part only; not given: Albumin and CD3 binders, linkers, part only)
chain, part: QVQLVESGGGLVQAGGSLRLSCAASGSIPSIEQMGWYRQAPGKQRELVAALTSGGRANYADSVKGRFTISGDNVRNMVYLQMNSLKPEDTAIYYCSAGRFKGDYAQRSGMDYWGKGTLVTVSSHHHHHH
B28: MSLN targeting trispecific protein 12D1 (protein, part only; not given: Albumin and CD3 binders, linkers, part only)
chain, part: QVRLVESGGGLVQAGGSLRLSCAASISAFRLMSVRWYRQDPSKQREWVATIDQLGRTNYADSVKGRFAISKDSTRNTVYLQMNMLRPEDTAVYYCNAGGGPLGSRWLRGRHWGQGTQVTVSSHHHHHH

In the experiment the target is human mesothelin (MSLN) (human) (UniProt Q13421). The experiment can be described thus: cell-based or functional assay.
Sequence of human mesothelin (MSLN) (human) (Q13421 296-606 limits assumed): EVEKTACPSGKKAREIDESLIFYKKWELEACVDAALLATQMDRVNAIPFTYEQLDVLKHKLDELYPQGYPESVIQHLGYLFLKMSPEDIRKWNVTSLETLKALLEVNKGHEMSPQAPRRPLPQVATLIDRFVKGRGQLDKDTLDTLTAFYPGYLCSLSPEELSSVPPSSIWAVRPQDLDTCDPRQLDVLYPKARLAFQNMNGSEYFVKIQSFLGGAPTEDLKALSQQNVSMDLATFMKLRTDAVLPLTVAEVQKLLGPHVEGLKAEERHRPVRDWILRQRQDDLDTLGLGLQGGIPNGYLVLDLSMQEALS
The molecule B1 yielded a TDCC Average EC50 [M], OVCAR8 cells, human T cells of 2.4e-12 M.
As to B2, the TDCC Average EC50 [M], OVCAR8 cells, human T cells was determined as 5.2e-11 M.
The same measure for B3: 7.3e-13 M; for B4: 2.2e-12 M; for B5: 1.8e-12 M.
The same measure for B6: 1.6e-12 M.
The same measure for B7: 5.3e-12 M; for B8: 1e-09 M.
B9 returned a TDCC Average EC50 [M], OVCAR8 cells, human T cells of 1.1e-12 M.
The same measure for B10: 1.4e-12 M; for B11: 1.5e-12 M.
The same measure for B12: 4e-09 M; for B13: greater than 1e-07 M.
With B14, the TDCC Average EC50 [M], OVCAR8 cells, human T cells amounted to 2.4e-08 M.
The same measure for B15: 8.2e-10 M; for B16: 1.2e-09 M; for B17: 8e-13 M.
The molecule B18 displayed a TDCC Average EC50 [M], OVCAR8 cells, human T cells of 1.4e-11 M.
As for B19, the TDCC Average EC50 [M], OVCAR8 cells, human T cells worked out at 9.5e-09 M.
Turning to B20, the TDCC Average EC50 [M], OVCAR8 cells, human T cells stood at 3.6e-09 M.
The same measure for B21: 5.5e-12 M; for B22: 1.7e-09 M.
As for B23, the TDCC Average EC50 [M], OVCAR8 cells, human T cells was 5.9e-12 M.
For B24, the TDCC Average EC50 [M], OVCAR8 cells, human T cells is 2e-09 M.
Next, B25: 1e-08 M; B26: 1.9e-09 M; B27: greater than 1e-07 M.
The same measure for B28: 1.1e-09 M.
